Ends that are not written are not given here. * marks the point of attachment. FITC = O=C1OC2(c3ccc(O)cc3Oc3cc(O)ccc32)c2ccc(NC(=S)*)cc21

One assay deals with MBP-TbtD. Nature of the assay: fluorescence polarisation.
{FITC}-MDLNDLPMDVFELADSGVAVESLTAGHGMTEVGA [synthetic TbtA leader peptide derivatized with fluorescein isothiocyanate (FITC) at the N-terminus] yielded a Kd of approximately 140 nM.

The next assay concerns the target maltose-binding protein (MBP) tagged TbtB. Nature of the assay: fluorescence polarisation.
Consider {FITC}-MDLNDLPMDVFELADSGVAVESLTAGHGMTEVGA [synthetic TbtA leader peptide derivatized with fluorescein isothiocyanate (FITC) at the N-terminus], for which the Kd was approximately 20 µM.

In the next assay the target is TbtF. Nature of the assay: fluorescence polarisation.
Regarding MDANDLPMDVFELADSGVAVESLTAGHGMTEVGASCNCFCYICCSCSSA [TbtA L(−32)A], half-maximal inhibition (IC50) required 1580 ± 360 nM.

Regarding MALNDLPMDVFELADSGVAVESLTAGHGMTEVGASCNCFCYICCSCSSA [TbtA D(−33)A], the half-inhibitory concentration (IC50) was found to be 990 ± 220 nM. This IC50 is about 1.6-fold lower than that of the molecule before.

As to MDLNDLPMDVFELADSGVAVESLTAGHGMTEAGASCNCFCYICCSCSSA [TbtA V(−3)A], 580 ± 50 nM corresponded to half-maximal inhibition (IC50).

In the case of MDLADLPMDVFELADSGVAVESLTAGHGMTEVGASCNCFCYICCSCSSA [TbtA N(−31)A], the IC50 turned out to be 570 ± 70 nM.

Regarding MDLNDLPMDVFELADSGVAVESLAAGHGMTEVGASCNCFCYICCSCSSA [TbtA T(−11)A], the IC50 was determined as 510 ± 60 nM.

Turning to MDLNDLPMDVFELADSGVAVASLTAGHGMTEVGASCNCFCYICCSCSSA [TbtA E(−14)A], the IC50 was 1370 ± 150 nM.

In turn, MDLNDLPMDAFELADSGVAVESLTAGHGMTEVGASCNCFCYICCSCSSA [TbtA V(−25)A] gave an IC50 of 620 ± 40 nM.

Regarding MDLNDLPMAVFELADSGVAVESLTAGHGMTEVGASCNCFCYICCSCSSA [TbtA D(−26)A], 8230 ± 1450 nM corresponded to half-maximal inhibition (IC50). This IC50 is about 13-fold higher than that of the molecule before.

As for MDLNDLPMDVFELADSGVAVESLTAGHGMTEVGASCNCFCYICCSCSSA [TbtA wild-type], inhibition was half-maximal at 670 ± 30 nM (IC50).

MDLNDLPMDVFELADSGVAVEALTAGHGMTEVGASCNCFCYICCSCSSA [TbtA S(−13)A] displayed an IC50 of 1410 ± 70 nM.

In the case of MDLNDLPMDVFALADSGVAVESLTAGHGMTEVGASCNCFCYICCSCSSA [TbtA E(−23)A], half-maximal inhibition (IC50) was put at 1270 ± 150 nM.

Consider MDLNDLPMDVFELADSGVAVESLTAGAGMTEVGASCNCFCYICCSCSSA [TbtA H(−8)A], for which the half-inhibitory concentration (IC50) amounted to 980 ± 60 nM.

Molecule MDLNDLPMDVAELADSGVAVESLTAGHGMTEVGASCNCFCYICCSCSSA [TbtA F(−24)A] displayed an IC50 of more than 10000 nM.

As to MDLNDLPMDVFELAASGVAVESLTAGHGMTEVGASCNCFCYICCSCSSA [TbtA D(−20)A], half-maximal inhibition (IC50) was put at 1450 ± 460 nM.

In turn, MDLNDLPMDVFELADSGVAAESLTAGHGMTEVGASCNCFCYICCSCSSA [TbtA V(−15)A] yielded an IC50 of 630 ± 60 nM.

MDLNDLPMDVFELADSGVAVESLTAGHGMTAVGASCNCFCYICCSCSSA [TbtA E(−4)A] yielded an IC50 of 530 ± 30 nM.

In turn, MDLNDLPMDVFELADSGVAVESLTAGHGATEVGASCNCFCYICCSCSSA [TbtA M(−6)A] gave an IC50 of 450 ± 30 nM.

On to MDLNDLPMDVFELADAGVAVESLTAGHGMTEVGASCNCFCYICCSCSSA [TbtA S(−19)A], for which half-maximal inhibition (IC50) required 1570 ± 460 nM. This IC50 is about 3.5-fold higher than that of the molecule before.

For the molecule MDLNDAPMDVFELADSGVAVESLTAGHGMTEVGASCNCFCYICCSCSSA [TbtA L(−29)A], the IC50 was more than 10000 nM.

MDLNDLPMDVFELADSGVAVESATAGHGMTEVGASCNCFCYICCSCSSA [TbtA L(−12)A] returned an IC50 of 700 ± 40 nM.

MDLNALPMDVFELADSGVAVESLTAGHGMTEVGASCNCFCYICCSCSSA [TbtA D(−30)A] yielded an IC50 of 940 ± 200 nM.

As to MDLNDLPMDVFELADSGAAVESLTAGHGMTEVGASCNCFCYICCSCSSA [TbtA V(−17)A], the IC50 was 490 ± 50 nM.

The target of a further assay is MBP-TbtD. Nature of the assay: fluorescence polarisation. This is another data set of the same source.
MDANDLPMDVFELADSGVAVESLTAGHGMTEVGASCNCFCYICCSCSSA [TbtA L(−32)A] displayed an IC50 of 1710 ± 470 nM.

MALNDLPMDVFELADSGVAVESLTAGHGMTEVGASCNCFCYICCSCSSA [TbtA D(−33)A] gave an IC50 of 720 ± 70 nM.

In turn, MDLNDLPMDVFELADSGVAVESLTAGHGMTEAGASCNCFCYICCSCSSA [TbtA V(−3)A] registered an IC50 of 1350 ± 140 nM. Against the preceding molecule, the IC50 is about 1.9-fold higher.

Molecule MDLADLPMDVFELADSGVAVESLTAGHGMTEVGASCNCFCYICCSCSSA [TbtA N(−31)A] showed an IC50 of 1130 ± 80 nM.

MDLNDLPMDVFELADSGVAVESLAAGHGMTEVGASCNCFCYICCSCSSA [TbtA T(−11)A] gave an IC50 of 450 ± 20 nM.

MDLNDLPMDVFELADSGVAVASLTAGHGMTEVGASCNCFCYICCSCSSA [TbtA E(−14)A] registered an IC50 of 4470 ± 960 nM.

MDLNDLPMDAFELADSGVAVESLTAGHGMTEVGASCNCFCYICCSCSSA [TbtA V(−25)A] displayed an IC50 of 2250 ± 200 nM.

On to MDLNDLPMAVFELADSGVAVESLTAGHGMTEVGASCNCFCYICCSCSSA [TbtA D(−26)A], for which the IC50 came out at 6000 ± 410 nM.

MDLNDLPMDVFELADSGVAVESLTAGHGMTEVGASCNCFCYICCSCSSA [TbtA wild-type] returned an IC50 of 610 ± 30 nM.

The molecule MDLNDLPMDVFELADSGVAVEALTAGHGMTEVGASCNCFCYICCSCSSA [TbtA S(−13)A] displayed an IC50 of 2760 ± 180 nM.

As for MDLNDLPMDVFALADSGVAVESLTAGHGMTEVGASCNCFCYICCSCSSA [TbtA E(−23)A], inhibition was half-maximal at 3460 ± 570 nM (IC50).

The molecule MDLNDLPMDVFELADSGVAVESLTAGAGMTEVGASCNCFCYICCSCSSA [TbtA H(−8)A] returned an IC50 of 3680 ± 310 nM.

Consider MDLNDLPMDVAELADSGVAVESLTAGHGMTEVGASCNCFCYICCSCSSA [TbtA F(−24)A], for which it took 1510 ± 90 nM to reach half-maximal inhibition (IC50).

Molecule MDLNDLPMDVFELAASGVAVESLTAGHGMTEVGASCNCFCYICCSCSSA [TbtA D(−20)A] returned an IC50 of 4130 ± 1620 nM.

MDLNDLPMDVFELADSGVAAESLTAGHGMTEVGASCNCFCYICCSCSSA [TbtA V(−15)A] displayed an IC50 of 1060 ± 60 nM.

As for MDLNDLPMDVFELADSGVAVESLTAGHGMTAVGASCNCFCYICCSCSSA [TbtA E(−4)A], the IC50 was found to be 700 ± 20 nM.

In turn, MDLNDLPMDVFELADSGVAVESLTAGHGATEVGASCNCFCYICCSCSSA [TbtA M(−6)A] registered a 50% inhibitory concentration (IC50) of 490 ± 70 nM.

The molecule MDLNDLPMDVFELADAGVAVESLTAGHGMTEVGASCNCFCYICCSCSSA [TbtA S(−19)A] gave an IC50 of 910 ± 110 nM. Against the preceding molecule, the IC50 is about 1.9-fold higher.

With MDLNDAPMDVFELADSGVAVESLTAGHGMTEVGASCNCFCYICCSCSSA [TbtA L(−29)A], the IC50 is more than 10000 nM.

The molecule MDLNDLPMDVFELADSGVAVESATAGHGMTEVGASCNCFCYICCSCSSA [TbtA L(−12)A] yielded an IC50 of 3290 ± 680 nM.

Consider MDLNALPMDVFELADSGVAVESLTAGHGMTEVGASCNCFCYICCSCSSA [TbtA D(−30)A], for which the IC50 was 7280 ± 770 nM.

For MDLNDLPMDVFELADSGAAVESLTAGHGMTEVGASCNCFCYICCSCSSA [TbtA V(−17)A], the IC50 was 690 ± 40 nM.

Source of the values: paper PMC5148741 (Journal of the American Chemical Society, 2016).
